Source: patent publication US20130078247A1 (Boehringer Ingelheim, published 2013)
Blank lines part the entries; values can stand above or below the binder they belong to.

Experiments:
[1] = molecular target: T1, mouse DLL4, full length, overexpressed on CHO or HEK293 cells (mouse, UniProt Q9JI71 27-686); experiment: periplasmic extract; FMAT, Notch1/Fc on CHO-mDLL4
T1 construct: whole, on cells; also called CHO-mDLL4; CHO-mDII4
Text: (§1) All calculations are based on the FL1_total signal which comprises the average of the fluorescence per well times the number of counts per well.

[2] = molecular target: T2, human DLL4, full length, overexpressed on CHO or HEK293 cells (human, UniProt Q9NR61 27-685); experiment: periplasmic extract; FMAT, Notch1/Fc on CHO-hDLL4
T2 construct: also called CHO-hDLL4; CHO-hDII4
Text: as §1

T1 sequence (Q9JI71 27-686): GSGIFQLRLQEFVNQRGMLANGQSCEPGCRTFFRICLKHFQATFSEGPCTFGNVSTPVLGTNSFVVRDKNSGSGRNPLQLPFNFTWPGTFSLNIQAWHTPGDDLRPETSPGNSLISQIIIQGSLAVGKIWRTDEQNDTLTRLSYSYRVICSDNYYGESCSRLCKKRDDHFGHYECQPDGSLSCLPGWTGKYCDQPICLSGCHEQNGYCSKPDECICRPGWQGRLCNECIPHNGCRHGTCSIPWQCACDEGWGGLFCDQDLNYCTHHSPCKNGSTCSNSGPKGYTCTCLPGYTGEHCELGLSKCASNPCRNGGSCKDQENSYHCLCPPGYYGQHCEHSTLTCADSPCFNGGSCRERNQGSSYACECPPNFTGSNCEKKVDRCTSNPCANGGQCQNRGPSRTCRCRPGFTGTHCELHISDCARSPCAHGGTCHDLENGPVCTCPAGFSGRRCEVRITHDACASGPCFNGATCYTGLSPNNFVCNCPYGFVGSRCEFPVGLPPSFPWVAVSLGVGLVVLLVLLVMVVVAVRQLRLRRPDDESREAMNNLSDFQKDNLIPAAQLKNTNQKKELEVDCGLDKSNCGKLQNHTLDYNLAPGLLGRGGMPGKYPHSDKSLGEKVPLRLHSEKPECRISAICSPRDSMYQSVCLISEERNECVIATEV

% inhibition [1]: 97%
% inhibition [2]: 72%
B1: DLLBII112A03 (VHH)
VHH: EVQLVESGGGLVQPGGSLRLSCAASGIRFSINGMGWYRQAPGKQREAVATITRGGIRDYTDSVKGRFTISRDIARNTVYLQMNNLKPEDSAVYYCNIDIYWGRGTQVTVSS
notes: also called DLLBII112A3; not shown: C-terminal c-myc and His6 tags

% inhibition [1]: 93%
% inhibition [2]: 87%
B2: DLLBII83G01 (VHH)
VHH: EVQLVESGGGLVQAGGSLRLSCAASGRTFSNYIMGWFRQAPGKEREFVAGISRYADYTGYADSVKGRFTISRDNVKNTVYLRMNSLKPDDTAVYYCAANEGYCSGYGCYEDSGQYDYWGQGTQVTVSS
notes: also called DLLBII83G1; not shown: C-terminal c-myc and His6 tags

% inhibition [1]: 73%
% inhibition [2]: 95%
B3: DLLBII58A11 (VHH)
VHH: EVQLVESGGGLVQAGGSLRLSCTTSERTVSRYSMGWFRQAPGKEREAVATISWSGDSTYYADSVKGRFTISRDNTKNTLYLQIDSLKPEDTAVYYCVAKPNLKYGSYWPPRGYDYWGQGTQVTVSS
notes: not shown: C-terminal c-myc and His6 tags

% inhibition [1]: 82%
% inhibition [2]: 71%
B4: DLLBII80E08 (VHH)
VHH: EVQLVESGGGLVQAGGSLTLSCAASGGTFTTYAMGWFRQAPGKEREFVAAVSRFGVSWDYADSVKGRFTISRDNTANTLKLRMNSLKADDTAVYYCAAGGRSFLPFVPAYWGQGTQVTVSS
notes: also called DLLBII80E8; not shown: C-terminal c-myc and His6 tags

% inhibition [1]: 82%
% inhibition [2]: 86%
B5: DLLBII102G04 (VHH)
VHH: EVQLMESGGGLVQPGGSLRLSCAASGFTFSSYAMSWVRQAPGKGLEWVSRITSGGRTTYRDSVKGRFTISRDNSKNTLYLQMNSLKPEDTALYYCAKARGDIDVYTLSDSRGQGTQVTVSS
notes: also called DLLBII102G4; not shown: C-terminal c-myc and His6 tags

% inhibition [1]: 76%
% inhibition [2]: 74%
B6: DLLBII61F05 (VHH)
VHH: EVQLVESGGGLVQPGGSLRLSCTASGFTFSSYAMSWVRQAPGKGLEWVSFINKDGSDTGYADSVKGRFTISRDNAKNTMYLQMNSLKPEDTAVYFCETRTSRSPRPRGQGTQVTVSS
notes: also called DLLBII61F5; not shown: C-terminal c-myc and His6 tags

% inhibition [1]: 90%
% inhibition [2]: 75%
B7: DLLBII112A04 (VHH)
VHH: EVQLVESGGGLVQAGGSLRLSCAAFGRTPYGMGWFRQAPGKEREFVAAITSDGSTNYADSVKGRFTISRDNAKNAVSLQMNSLKPEDTAVYYCTAPYYSDFEGTTTEYDYWGQGTQVTVSS
notes: also called DLLBII112A4; not shown: C-terminal c-myc and His6 tags

% inhibition [2]: 87%
B8: DLLBII47D01 (VHH)
VHH: EVQLVESGGGLVQPGGSLRLSCAASGFTFDDYAIGWFRQAPGKEREGVSCISSSGSTYYADSVKGRFTISRDNAKNTVYLQMNSLKPEDTAVYYCAIAGASSWCFPPGYWGQGTQVTVSS
notes: also called DLLBII47D1; not shown: C-terminal c-myc and His6 tags

% inhibition [1]: 71%
% inhibition [2]: 81%
B9: DLLBII95F02 (VHH)
VHH: EVQLVESGGGSVQAGGSLRLSCAASGRTFSSYAMGWFRQAPGKEREFVAAINWSGGYTYYADSVRGRFTISRDNAKNTVYLQMNSLKPEDTAVYYCAAPAPGSSGYEYDYWGQGTQVTVSS
notes: also called DLLBII95F2; not shown: C-terminal c-myc and His6 tags

% inhibition [1]: 83%
B10: DLLBII101H05 (VHH)
VHH: EVQLVESGGGSAQAGGSLRLSCAASGRTSSTYAMGWFRQAPGKEHEFVSAIGRGTGATSYGDSVKGRFTISRDNAKNTVYLQMNSLQLEDTGDYYCVAGRGFYHDYSSYEYRGQGTQVTVSS
notes: also called DLLBII101H5; not shown: C-terminal c-myc and His6 tags

% inhibition [1]: 77%
% inhibition [2]: 79%
B11: DLLBII61F07 (VHH)
VHH: EVQLVESGGGLVQAGGSLRLSCAASGRTFSRYAMGWFRQAPGKEREFVAAINWSGGSTYYADSVKGRFTISRDNAKNTVYLQMNSLKPEDTAVYDCAASNYYSVYDDRPVMDYWGQGTQVTVSS
notes: also called DLLBII61F7; not shown: C-terminal c-myc and His6 tags

% inhibition [1]: 75%
% inhibition [2]: 85%
B12: DLLBII102F08 (VHH)
VHH: EVQLVESGGGLVQTGDSLRLSCAASGSTFSNYRMGWFRQGPGKEREFVAAIGRNGQNTYYTDSVKGRFTVTRDNAKNMVYLQMNSLKPEDSAVYTCAASLRGWDTTRIDYEYWGQGTQVTVSS
notes: also called DLLBII102F8; not shown: C-terminal c-myc and His6 tags
